Assay results as given in EP4613276A2 (Actym Therapeutics, Inc., dated 2025).

Assays:
[1] = target: recombinant murine CTLA-4-human IgG1 Fc chimera (R&D Systems) (mouse; human) (UniProt P09793); assay: competitive ELISA: HEK293T supernatant mixed with 10 ng/ml murine CTLA-4-human IgG1 Fc, on coated mouse CD80 (competitor); anti-human IgG1-HRP detection
[2] = target: recombinant murine CTLA-4-human IgG1 Fc chimera (R&D Systems) (mouse; human) (UniProt P09793); assay: competitive ELISA: HEK293T supernatant mixed with 10 ng/ml murine CTLA-4-human IgG1 Fc, on coated mouse CD86 (competitor); anti-human IgG1-HRP detection
[3] = target: mouse TGF-β1 (R&D Systems) (mouse) (UniProt P04202); assay: direct ELISA with mouse TGF-β1 on HEK293T supernatant (media control 0.041 ± 0.002)
[4] = target: mouse TGF-β1 (R&D Systems) (mouse) (UniProt P04202); assay: direct ELISA with mouse TGF-β1 on concentrated HEK293T supernatant (media control 0.041 ± 0.002)
[5] = target: CD3 on Jurkat-Lucia™ NFAT cells (Homo sapiens (Human)) (UniProt P07766); assay: cell-based or functional assay
CD19 on Raji cells [6] = target: CD19 on Raji cells (UniProt P15391); assay: flow cytometry on Raji cells, BiTE detected with anti-FLAG-APC (anti-FLAG-APC only: 1439)
[7] = target: CD3 on Jurkat-Lucia™ NFAT cells (Homo sapiens (Human)) (UniProt P07766); assay: flow cytometry on Jurkat-Lucia NFAT cells, BiTE detected with anti-FLAG-APC (anti-FLAG-APC only: 1519)
CD19 on Raji cells [8] = target: CD19 on Raji cells (UniProt P15391); assay: flow cytometry on Raji cells, concentrated supernatant, BiTE detected with anti-FLAG-APC (anti-FLAG-APC only: 1439)
[9] = target: CD3 on Jurkat-Lucia™ NFAT cells (Homo sapiens (Human)) (UniProt P07766); assay: flow cytometry on Jurkat-Lucia NFAT cells, concentrated supernatant, BiTE detected with anti-FLAG-APC (anti-FLAG-APC only: 1519)
[10] = target: T1, recombinant murine CTLA-4-human IgG1 Fc chimera (R&D Systems) (mouse; human, UniProt P09793 36-162; P01857 100-330 = IgG part, limits assumed); assay: direct ELISA of transfected HEK293T supernatant on mouse CTLA-4-Fc; the grade is printed as the payload's expression level
T1 construct: Bought reagent; also called mouse CTLA-4-Fc

CD3 on Jurkat-Lucia™ NFAT cells (Homo sapiens (Human)), sequence (P07766 23-207 limits assumed, form in doubt, chain 1 of 3): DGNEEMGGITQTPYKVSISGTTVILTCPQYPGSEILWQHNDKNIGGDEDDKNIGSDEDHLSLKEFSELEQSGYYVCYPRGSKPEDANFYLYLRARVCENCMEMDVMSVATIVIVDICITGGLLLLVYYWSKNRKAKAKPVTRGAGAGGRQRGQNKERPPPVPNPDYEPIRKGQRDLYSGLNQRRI
CD3 on Jurkat-Lucia™ NFAT cells (Homo sapiens (Human)), sequence (delta, as listed by the source limits assumed, form in doubt, chain 2 of 3): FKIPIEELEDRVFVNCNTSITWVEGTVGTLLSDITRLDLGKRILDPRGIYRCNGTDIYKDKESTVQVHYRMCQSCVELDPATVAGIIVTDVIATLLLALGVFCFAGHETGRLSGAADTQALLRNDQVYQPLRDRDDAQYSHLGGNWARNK
CD3 on Jurkat-Lucia™ NFAT cells (Homo sapiens (Human)), sequence (gamma, as listed by the source limits assumed, form in doubt, chain 3 of 3): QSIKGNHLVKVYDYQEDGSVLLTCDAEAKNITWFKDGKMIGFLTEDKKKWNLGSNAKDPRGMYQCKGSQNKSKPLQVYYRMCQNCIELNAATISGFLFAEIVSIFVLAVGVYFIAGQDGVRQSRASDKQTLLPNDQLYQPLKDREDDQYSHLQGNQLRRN
CD19 on Raji cells, sequence (P15391 20-556 limits assumed): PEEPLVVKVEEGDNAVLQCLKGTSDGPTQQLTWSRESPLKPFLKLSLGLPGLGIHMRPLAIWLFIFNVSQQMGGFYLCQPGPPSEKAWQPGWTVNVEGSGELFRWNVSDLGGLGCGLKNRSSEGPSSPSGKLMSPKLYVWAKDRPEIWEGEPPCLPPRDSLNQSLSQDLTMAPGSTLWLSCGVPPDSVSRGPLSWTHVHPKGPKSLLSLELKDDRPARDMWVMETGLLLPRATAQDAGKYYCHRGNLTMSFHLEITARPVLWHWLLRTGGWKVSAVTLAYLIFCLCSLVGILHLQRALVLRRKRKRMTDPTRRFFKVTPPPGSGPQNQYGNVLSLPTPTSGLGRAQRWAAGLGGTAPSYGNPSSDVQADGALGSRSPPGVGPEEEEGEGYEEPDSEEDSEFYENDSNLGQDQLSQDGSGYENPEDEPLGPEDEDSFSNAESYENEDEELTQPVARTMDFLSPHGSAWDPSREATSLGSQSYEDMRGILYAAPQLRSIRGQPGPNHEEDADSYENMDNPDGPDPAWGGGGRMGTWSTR
mouse TGF-β1 (R&D Systems) (mouse), sequence (P04202 279-390 limits assumed): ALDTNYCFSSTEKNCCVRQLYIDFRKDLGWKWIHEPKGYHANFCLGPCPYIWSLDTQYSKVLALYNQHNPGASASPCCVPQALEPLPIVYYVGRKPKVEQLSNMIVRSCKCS

Molecule “anti-CTLA-4 scFv (ipilimumab scFv antibody fragment)” has a % CD80 Blockade Activity [1] of 7% and a % CD86 Blockade Activity [2] of 32.5%.

With “Soluble mouse TGFβ receptor II-Fc (Fc fusion)” the Absorbance at 450 nm (absorbance at 450 nm) [3] was 1.51 and the Absorbance at 450 nm (absorbance at 450 nm) [4] was 1.52.

Molecule “CD3xCD19 bispecific T-cell engager (BiTE®), containing a FLAG tag and a His tag (bispecific antibody)” has a Luminescence (NFAT reporter), 1 Raji: 1 Jurkat, 6 hour time point, CD3xCD19 BiTE® [5] of 2060 Luminescence, a Luminescence (NFAT reporter), 1 Raji: 1 Jurkat, 6 hour time point, concentrated CD3xCD19 BiTE® [5] of 4340 Luminescence and a Luminescence (NFAT reporter), 1 Raji: 1 Jurkat, 24 hour time point, CD3xCD19 BiTE® [5] of 6020 Luminescence. It also gave a Luminescence (NFAT reporter), 1 Raji: 1 Jurkat, 24 hour time point, concentrated CD3xCD19 BiTE® [5] of 18600 Luminescence, a Luminescence (NFAT reporter), 2 Raji: 1 Jurkat, 6 hour time point, CD3xCD19 BiTE® [5] of 3440 Luminescence and a Luminescence (NFAT reporter), 2 Raji: 1 Jurkat, 6 hour time point, concentrated CD3xCD19 BiTE® [5] of 12100 Luminescence. It also gave a Luminescence (NFAT reporter), 2 Raji: 1 Jurkat, 24 hour time point, CD3xCD19 BiTE® [5] of 11300 Luminescence, a Luminescence (NFAT reporter), 2 Raji: 1 Jurkat, 24 hour time point, concentrated CD3xCD19 BiTE® [5] of 47200 Luminescence and a Mean Fluorescence Intensity (MFI) of APC+ Cells (CD19 on Raji cells [6]) of 7410 MFI. It also gave a Mean Fluorescence Intensity (MFI) of APC+ Cells [7] of 4580 MFI, a Mean Fluorescence Intensity (MFI) of APC+ Cells (CD19 on Raji cells [8]) of 16000 MFI and a Mean Fluorescence Intensity (MFI) of APC+ Cells [9] of 14100 MFI.

B1: anti-murine CTLA-4 scFv (derived from the 9D9 clone) (scFv)
scFv: DIVMTQTTLSLPVSLGDQASISCRSSQSIVHSNGNTYLEWYLQKPGQSPKLLIYKVSNRFSGVPDRFSGSGSGTDFTLKISRVEAEDLGVYYCFQGSHVPYTFGGGTKLEIKGGGGSGGGGSGGGGSEAKLQESGPVLVKPGASVKMSCKASGYTFTDYYMNWVKQSHGKSLEWIGVINPYNGDTSYNQKFKGKATLTVDKSSSTAYMELNSLTSEDSAVYYCARYYGSWFAYWGQGTLVTVSS
notes: Tested as HEK293T supernatant; also called anti-muCTLA-4 scFv
B1: binds [10].

B2: anti-murine CTLA-4 scFv-Fc (derived from the 9D9 clone, mouse IgG2a Fc) (Fc fusion)
chain: DIVMTQTTLSLPVSLGDQASISCRSSQSIVHSNGNTYLEWYLQKPGQSPKLLIYKVSNRFSGVPDRFSGSGSGTDFTLKISRVEAEDLGVYYCFQGSHVPYTFGGGTKLEIKGGGGSGGGGSGGGGSEAKLQESGPVLVKPGASVKMSCKASGYTFTDYYMNWVKQSHGKSLEWIGVINPYNGDTSYNQKFKGKATLTVDKSSSTAYMELNSLTSEDSAVYYCARYYGSWFAYWGQGTLVTVSSEPRGPTIKPCPPCKCPAPNLLGGPSVFIFPPKIKDVLMISLSPIVTCVVVDVSEDDPDVQISWFVNNVEVHTAQTQTHREDYNSTLRVVSALPIQHQDWMSGKEFKCKVNNKDLPAPIERTISKPKGSVRAPQVYVLPPPEEEMTKKQVTLTCMVTDFMPEDIYVEWTNNGKTELNYKNTEPVLDSDGSYFMYSKLRVEKKNWVERNSYSCSVVHEGLHNHHTTKSFSRTPGK
notes: Tested as HEK293T supernatant; also called anti-muCTLA-4 scFv-Fc
B2: binds [10].
